We go through 6 molecules from patent US20250339466A1 (published 2025).

Changes are numbered by the printed parent chain.

T1: human BCMA on BCMA overexpressing CHO cells (human, UniProt Q02223 1-184)
T1 construct: also called hBCMA CHO; Hu BCMA (FACS)
T1 chain: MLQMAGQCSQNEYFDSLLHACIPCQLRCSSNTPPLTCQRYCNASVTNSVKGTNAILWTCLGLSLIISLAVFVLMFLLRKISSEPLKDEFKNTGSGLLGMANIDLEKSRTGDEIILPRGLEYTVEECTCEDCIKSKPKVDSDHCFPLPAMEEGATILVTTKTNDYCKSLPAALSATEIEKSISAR

B1: anti-BCMA scFv clone from phage display, periplasmic extract (Table 3, first row; VH printed there as SEQ ID NO: 26, VL as SEQ ID NO: 23) (scFv, V domains shown, part only)
VH: QITLRESGGDVVQPGRSLRLSCAASGFTFSSYAIHWVRQAPGKGLEWVAVTWHDGSNKYYAESVMGRFTISRDNSKNTLYLHMNSLRAEDTGVYYCARAKFGEPQYFQHWGQGTLVTVSS
VL: DIVMTQSPSFLSASVGDRVTITCRASQGISSYLAWYQQKPGKAPKLLIYAASTLQSGVPSRFSGSGSGTEFTLTISSLQPEDFATYYCQQLNSYPWTFGQGTKVDIK
modifications: linker not stated
B2: anti-BCMA scFv clone from phage display, periplasmic extract (Table 3, third row; VH printed there as SEQ ID NO: 10, VL as SEQ ID NO: 27) (scFv, V domains shown, part only)
VH: B1 VH with Q1E, I2V, T3Q, R5V, L115T
VL: B1 VL with W96F, Q100P
modifications: linker not stated
B3: anti-BCMA scFv clone from phage display, periplasmic extract (Table 3, second row; VH printed there as SEQ ID NO: 26, VL as SEQ ID NO: 25) (scFv, V domains shown, part only)
VH: B1 VH
VL: B1 VL with S30N, S31N, K42I, S63G, N92K, W96F, Q100P, D105E
modifications: linker not stated
B4: anti-BCMA scFv clone from phage display, periplasmic extract (Table 3, third row; VH printed there as SEQ ID NO: 10, VL as SEQ ID NO: 27) (scFv)
chain: EVQLVESGGDVVQPGRSLRLSCAASGFTFSSYAIHWVRQAPGKGLEWVAVTWHDGSNKYYAESVMGRFTISRDNSKNTLYLHMNSLRAEDTGVYYCARAKFGEPQYFQHWGQGTTVTVSSDIVMTQSPSFLSASVGDRVTITCRASQGISSYLAWYQQKPGKAPKLLIYAASTLQSGVPSRFSGSGSGTEFTLTISSLQPEDFATYYCQQLNSYPFTFGPGTKVDIK
B5: anti-BCMA scFv clone from phage display, periplasmic extract (Table 3, first row; VH printed there as SEQ ID NO: 26, VL as SEQ ID NO: 23) (scFv)
chain: B4 chain with E1Q, V2I, Q3T, V5R, T115L, F216W, P220Q
B6: anti-BCMA scFv clone from phage display, periplasmic extract (Table 3, second row; VH printed there as SEQ ID NO: 26, VL as SEQ ID NO: 25) (scFv)
chain: QITLRESGGDVVQPGRSLRLSCAASGFTFSSYAIHWVRQAPGKGLEWVAVTWHDGSNKYYAESVMGRFTISRDNSKNTLYLHMNSLRAEDTGVYYCARAKFGEPQYFQHWGQGTLVTVSSDIVMTQSPSFLSASVGDRVTITCRASQGINNYLAWYQQKPGIAPKLLIYAASTLQSGVPSRFGGSGSGTEFTLTISSLQPEDFATYYCQQLKSYPFTFGPGTKVEIK

The target in the first experiment is Bio-huBCMA-His (biotinylated human BCMA with His tag) (human) (UniProt Q02223). As to the kind of experiment: ELISA, periplasmic extract of scFv on biotinylated human BCMA-His. (In an ELISA, binding on a coated surface is turned into a signal by an enzyme label.)
Take B1: the PE ELISA Bio-huBCMA-His stood at 1.1. On the same count and under the same terms, under B2 stands 0.516; under B3, 1.11.

In the next experiment the target is T1, human BCMA on BCMA overexpressing CHO …. Description: flow cytometry, periplasmic extract of scFv on cells with human BCMA. For orientation: In flow cytometry, cells or beads pass a laser one at a time.
For the molecule B4, the “PE FACS % Binding Hu BCMA” value was found to be 47.2%.

B5: the “PE FACS % Binding Hu BCMA” value was found to be 89%. Still for that read-out and setting: under B6 stands 54.6%.

The target of another experiment is T2, Bio-cyBCMA-His (biotinylated cynomolgus BCMA with His tag) (cynomolgus, UniProt A0A2K5UD97 1-53, Biotinylated (site not stated); C- or N-terminal His tag not carried in the letters).
T2 construct: not shown: biotin label
T2 sequence (A0A2K5UD97 entry or part of it limits assumed, form in doubt): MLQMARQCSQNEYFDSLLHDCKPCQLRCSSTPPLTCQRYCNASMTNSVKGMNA
Description: ELISA, periplasmic extract of scFv on biotinylated cynomolgus BCMA-His.
Consider B4, for which the “PE Elisa Bio-cyBCMA-His” value stood at 0.126. The same measure, in the same setting: under B5 stands 0.147; under B6, 0.122.
